In article PMC1976250 (Journal of neurochemistry, 2007):

T1: GST-GluR2 C-terminus (GST-R2C) (UniProt P19491 834-883)
T1 chain (looked up): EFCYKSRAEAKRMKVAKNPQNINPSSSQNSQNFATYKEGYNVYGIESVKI

B1: his6D142A NSF (enzyme, UniProt P18708 1-744, looked up)
chain: MAGRSMQAARCPTDELSLSNCAVVSEKDYQSGQHVIVRTSPNHKYIFTLRTHPSVVPGSVAFSLPQRKWAGLSIGQEIEVALYSFDKAKQCIGTMTIEIDFLQKKNIDSNPYDTDKMAAEFIQQFNNQAFSVGQQLVFSFNAKLFGLLVKDIEAMDPSILKGEPASGKRQKIEVGLVVGNSQVAFEKAENSSLNLIGKAKTKENRQSIINPDWNFEKMGIGGLDKEFSDIFRRAFASRVFPPEIVEQMGCKHVKGILLYGPPGCGKTLLARQIGKMLNAREPKVVNGPEILNKYVGESEANIRKLFADAEEEQRRLGANSGLHIIIFDEIDAICKQRGSMAGSTGVHDTVVNQLLSKIDGVEQLNNILVIGMTNRPDLIDEALLRPGRLEVKMEIGLPDEKGRLQILHIHTARMRGHQLLSADVDIKELAVETKNFSGAELEGLVRAAQSTAMNRHIKASTKVEVDMEKAESLQVTRGDFLASLENDIKPAFGTNQEDYASYIMNGIIKWGDPVTRVLDDGELLVQQTKNSDRTPLVSVLLEGPPHSGKTALAAKIAEESNFPFIKICSPDKMIGFSETAKCQAMKKIFDDAYKSQLSCVVVDDIERLLDYVPIGPRFSNLVLQALLVLLKKAPPQGRKLLIIGTTSRKDVLQEMEMLNAFSTTIHVPNIATGEQLLEALELLGNFKDKERTTIAQQVKGKKVWIGIKKLLMLIEMSLQMDPEYRVRKFLALLREEGASPLDFD
B2: his6β-SNAP (β soluble NSF attachment protein) (natural protein, UniProt P81126 1-298, looked up)
chain: MDNAGKEREAVQLMAEAEKRVKASHSFLRGLFGGNTRIEEACEMYTRAANMFKMAKNWSAAGNAFCQAAKLHMQLQSKHDSATSFVDAGNAYKKADPQEAINCLNAAIDIYTDMGRFTIAAKHHITIAEIYETELVDIEKAIAHYEQSADYYKGEESNSSANKCLLKVAAYAAQLEQYQKAIEIFEQIGANTMDNPLLKYSAKDYFFKAALCHFIVDELNAKLALEKYEEMFPAFTDSRECKLLKKLLEAHEEQNSEAYTEAVKEFDSISRLDQWLTTMLLRIKKSIQGDGEGDGDLK

Assays:
[1] = target: T1, GST-GluR2 C-terminus (GST-R2C); assay: pull-down
[2] = target: GST-PICK1 (protein interacting with C-kinase 1) (UniProt Q9EP80 1-416); assay: pull-down
Chain of GST-PICK1 (protein interacting with C-kinase 1) (Q9EP80 whole entry): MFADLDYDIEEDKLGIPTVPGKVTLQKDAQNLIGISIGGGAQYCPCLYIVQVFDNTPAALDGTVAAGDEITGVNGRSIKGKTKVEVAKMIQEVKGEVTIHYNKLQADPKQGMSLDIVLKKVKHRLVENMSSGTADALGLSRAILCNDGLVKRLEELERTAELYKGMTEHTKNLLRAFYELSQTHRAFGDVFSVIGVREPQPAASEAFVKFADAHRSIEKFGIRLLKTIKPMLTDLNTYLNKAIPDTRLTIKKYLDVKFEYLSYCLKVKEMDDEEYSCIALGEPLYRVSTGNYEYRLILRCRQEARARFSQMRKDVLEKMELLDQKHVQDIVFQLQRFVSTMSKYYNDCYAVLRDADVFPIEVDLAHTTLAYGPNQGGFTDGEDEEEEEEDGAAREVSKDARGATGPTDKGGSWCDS

Row | binding at 15 μmol/L free Ca2+ relative to zero free Ca2+ [1] | fold increase in binding at 15 μmol/L free Ca2+ compared with zero free Ca2+ [2] | Binder
1 | 85% |  | B1
2 |  | ~7 fold | B2
